The values that follow come from the supplement of paper PMC12764529.

Data set [1] in a line: folding stability dG unfold from chymotrypsin proteolysis; higher = more stable. The method, boiled down: (§1)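 Sequencing followed digestion of designed mini-proteins with trypsin and chymotrypsin, each at 11 concentrations in threefold dilutions together with a no-protease condition. The mini-proteins were under 80 residues, had no cysteine, sat in a PA-tagged cDNA display construct, and were kept only if AlphaFold2 dimer inter-PAE was above 15. From the counts, Bayesian fitting gave K50, and unfolding free energy was derived against a sequence-predicted unfolded-state K50 and a shared folded-state K50, per protease or combined.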

Data set [2] in a line: folding stability dG unfold (combined trypsin and chymotrypsin); higher = more stable. The procedure, abridged: as §1
The nature of data set [3]: folding stability dG unfold from trypsin proteolysis; higher = more stable. The procedure, abridged: as §1

± gives the half width of the 95% confidence interval.

Regarding “SAGGSVEVTKTESKGPGGTVTVEALKTVTKFDEKGNPVKEEEVRITRTETYDPNTGKVTTTTTVEGSAGGSA [r2_220_JUSTAS]”, the figures for the “folding stability dG unfold” value in data set [1], in data set [2] and in data set [3] were 0.709 ± 0.018 kcal/mol, 0.487 ± 0.067 kcal/mol and -0.0891 ± 0.061 kcal/mol, respectively.

Turning to “SAGGSVFESEKDLRVEVYKIKVGTTLGKEKNGKPKKPKFKEKEVLVVKVEVPLEDGTTLSAEFTFGSAGGSA [r2_218_TrMRF]”, the “folding stability dG unfold” value in data set [1] was 3.24 ± 0.073 kcal/mol; in data set [2], 2.52 ± 0.26 kcal/mol; in data set [3], 1.25 ± 0.13 kcal/mol.

“SAGGSVKQIALRIARDMGYPNVKVEEIPIEKTPNGWVQIPITVEHPKDGKPIGPFQIHIRPGDPIVSAGGSA [r2_137_TrROS]”: the “folding stability dG unfold” value in data set [1] is 0.602 ± 0.27 kcal/mol; in data set [2], 0.731 ± 0.29 kcal/mol; in data set [3], 1.17 ± 0.24 kcal/mol.

On to “SAGGSVPERAKVVTLVLRFEEPESLGIPLLERLLRELGFPDAVLGEVRIEPLPDGSVVAVVPLLVPSAGGSA [r2_346_TrMRF]”, for which the “folding stability dG unfold” value turned out to be 3.196 ± 0.02 kcal/mol in data set [1], 2.91 ± 0.059 kcal/mol in data set [2] and 2.42 ± 0.041 kcal/mol in data set [3].

For “SAGGSVTLSAEFTLPDGSRVRLTVEVLPDGTLRVSAEVEAVPLVPPVRVSRLPDGSLVSDPLGVPLVLSAGG [r13_151_TrMRF]”, the “folding stability dG unfold” value in data set [1] was determined as 1.31 ± 0.11 kcal/mol; in data set [2], 1.57 ± 0.15 kcal/mol; in data set [3], 1.82 ± 0.046 kcal/mol.

“SAGGSWRVSVQFPDGKKIKIPEEPIQKIIQEYGIPPDPGDPERMVERIANRIADKYGYPVKNIEIDSAGGSA [r2_83_TrROS]”: the entries for the “folding stability dG unfold” value in data set [1], in data set [2] and in data set [3] were 0.385 ± 0.13 kcal/mol, 0.0663 ± 0.15 kcal/mol and -0.377 ± 0.42 kcal/mol, respectively.

Consider “SAGGSWTIDIDPEKVKEVEHKRNPNGMNEHRLELPNKNGKKREVKIPMGMKSPEDALDEIRELLGKSAGGSA [r2_347_TrROS]”, for which the “folding stability dG unfold” value in data set [1] was 0.663 ± 0.32 kcal/mol; in data set [2], 0.331 ± 0.39 kcal/mol; in data set [3] it was 0.167 ± 0.25 kcal/mol.

In the case of “SAGGTAEEIVEALKEAGIPVLSIEPNSDGTYTITVGGPDGTPFTIEISSANPADLAALKEAIPEEVSSAGGS [r16_821_TrMRF]”, the results for the “folding stability dG unfold” value in data set [1], in data set [2] and in data set [3] were 4.01 ± 0.072 kcal/mol, 3.86 ± 0.12 kcal/mol and 3.35 ± 0.22 kcal/mol, respectively.

In the case of “SAGGTIFIPWEEAEEFIENAFENGEDIEIEFFLDDGWWYKFTITGPDIDLRVVEVVPMPPPPEDPGKKSAGG [r13_839_TrROS]”, the results for the “folding stability dG unfold” value in data set [1], in data set [2] and in data set [3] were 2.82 ± 0.042 kcal/mol, 2.34 ± 0.11 kcal/mol and 0.836 ± 0.056 kcal/mol, respectively.

As for “SAGGTIYIFIPGLTAEEILKFIAEEFPGHENVTIFWPKGYYVKITVDNGNIKIDKVQPMRPMPPGDPSAGGS [r8_225_TrROS]”, the “folding stability dG unfold” value was found to be 3.31 ± 0.026 kcal/mol in data set [1], 2.99 ± 0.084 kcal/mol in data set [2] and 2.52 ± 0.073 kcal/mol in data set [3].

“SAGGTKTINIKNMPPNDPERMVRTARHLLKELKQKGPGKTITIHMDNPWAREVAEYLKKEGIPIEVHSAGGS [r16_450_TrROS]”: the “folding stability dG unfold” value in data set [1] came out at 1.09 ± 0.15 kcal/mol; in data set [2] it was 0.947 ± 0.14 kcal/mol; in data set [3] it was 0.581 ± 0.17 kcal/mol.

For “SAGGTLKVTEEEVSESEFESPGLPLRRTTTTYTLVDPVTGKPVPTSKKVTVETLETPEGRVLETVVTSSAGG [r13_24_JUSTAS]”, the “folding stability dG unfold” value in data set [1] is 0.0434 ± 0.14 kcal/mol; in data set [2] it was -0.0697 ± 0.13 kcal/mol; in data set [3] it was -0.45 ± 0.24 kcal/mol.

For “SAGGTRTIWFPVDDIREALPPDNIKKVEVEPVGPENNWYKVTIEFPDYKIEIQYYPEEPGMFMVTITDSAGG [r13_942_TrROS]”, the “folding stability dG unfold” value was 2.71 ± 0.043 kcal/mol in data set [1], 2.13 ± 0.29 kcal/mol in data set [2] and 0.791 ± 0.085 kcal/mol in data set [3].

For “SAGGTVEEIKEKLEEAGWEVVKVEKKEDGSITVTVRRKDGKELKIEIDLKNEEVRKALAELLPEEELSAGGS [r16_821_TrROS_Hall]”, the entries for the “folding stability dG unfold” value in data set [1], in data set [2] and in data set [3] were 3.22 ± 0.13 kcal/mol, 2.95 ± 0.15 kcal/mol and 2.42 ± 0.19 kcal/mol, respectively.

Consider “SAGGTVTLTLELTVKVKRKDGKTETKKVTLTITVEVKEGETVYTPDGKKIKPGKSAEELAKELLKKLSAGGS [r16_440_TrROS_Hall]”, for which the “folding stability dG unfold” value is 1.28 ± 0.12 kcal/mol in data set [1], 1.27 ± 0.32 kcal/mol in data set [2] and 1.17 ± 0.089 kcal/mol in data set [3].
